T1: human CD98 ECD (Homo sapiens, UniProt P08195)
T1 construct: Human CD98 ECD with C-terminal His-tag
T1 sequence (P08195 with tags, fused parts or gaps): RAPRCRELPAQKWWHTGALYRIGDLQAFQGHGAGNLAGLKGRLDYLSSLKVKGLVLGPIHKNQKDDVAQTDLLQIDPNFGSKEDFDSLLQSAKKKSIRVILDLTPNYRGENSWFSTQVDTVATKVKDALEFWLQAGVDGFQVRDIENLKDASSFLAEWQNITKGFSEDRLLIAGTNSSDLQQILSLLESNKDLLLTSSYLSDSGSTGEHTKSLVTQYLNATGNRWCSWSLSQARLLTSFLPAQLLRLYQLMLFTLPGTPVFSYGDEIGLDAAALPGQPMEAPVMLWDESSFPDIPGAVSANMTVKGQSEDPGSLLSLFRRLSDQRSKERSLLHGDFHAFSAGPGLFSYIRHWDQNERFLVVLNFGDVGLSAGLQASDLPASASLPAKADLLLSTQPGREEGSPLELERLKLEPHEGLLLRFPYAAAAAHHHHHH

T2: human CD98 (Homo sapiens, UniProt P08195)
T2 sequence (P08195 1-630 isoform P08195-1): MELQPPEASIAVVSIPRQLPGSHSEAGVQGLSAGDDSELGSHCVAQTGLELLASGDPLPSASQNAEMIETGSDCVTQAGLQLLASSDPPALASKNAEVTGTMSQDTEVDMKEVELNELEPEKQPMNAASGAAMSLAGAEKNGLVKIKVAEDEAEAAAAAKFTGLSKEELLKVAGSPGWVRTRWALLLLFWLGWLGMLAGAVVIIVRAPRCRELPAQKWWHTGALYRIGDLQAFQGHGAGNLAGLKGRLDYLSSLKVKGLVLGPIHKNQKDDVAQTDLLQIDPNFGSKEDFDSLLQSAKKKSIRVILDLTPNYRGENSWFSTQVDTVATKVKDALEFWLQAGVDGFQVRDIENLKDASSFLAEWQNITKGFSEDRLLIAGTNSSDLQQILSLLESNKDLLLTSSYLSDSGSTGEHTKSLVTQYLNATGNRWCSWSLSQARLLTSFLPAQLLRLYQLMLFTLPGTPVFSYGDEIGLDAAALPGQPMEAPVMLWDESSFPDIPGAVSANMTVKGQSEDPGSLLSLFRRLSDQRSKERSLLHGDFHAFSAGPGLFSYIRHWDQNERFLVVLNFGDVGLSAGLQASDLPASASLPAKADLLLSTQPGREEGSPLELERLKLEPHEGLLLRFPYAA


How the values were obtained:
[1] = Conjugation of anti-CD98 mAbs with Bcl-xL inhibitor synthons (precipitation, DAR, recovery, aggregation); settings: mAb conjugated with Bcl-xL inhibitor synthon CZ, Method A
Protocol: Method A. A solution of BOND-BREAKER tris(2-carboxyethyl)phosphine (TCEP) solution (10 mM, 0.017 mL) was added to a solution of antibody (10 mg/mL, […]) preheated to 37° C. The reaction mixture was kept at 37° C. for 1 hour. The solution of reduced antibody was added to a solution of synthon (3.3 mM, 0.160 mL in DMSO) and gently mixed for 30 minutes. The reaction solution was loaded onto a desalting column (PD10, washed with DPBS 3x before use), followed by DPBS (1.6 mL) and eluted with additional DPBS (3 mL). The purified ADC solution was filtered through a 0.2 micron, low protein-binding 13 mm syringe-filter and stored at 4° C.
Method E. A solution of BOND-BREAKER tris(2-carboxyethyl)phosphine (TCEP) solution (10 mM, 0.017 mL) was added to the solution of antibody (10 mg/mL, 1 mL) at room temperature. The reaction mixture was heated to 37° C. for 75 minutes. The solution of reduced antibody cooled to room temperature and was added to a solution of synthon (10 mM, 0.040 mL in DMSO) followed by addition of boric buffer (0.1 mL, 1M, pH 8). The reaction solution was let to stand for 3 days at room temperature, loaded onto a desalting column (PD10, washed with DPBS 3×5 mL before use), followed by DPBS (1.6 mL) and eluted with additional DPBS (3 mL). The purified ADC solution was filtered through a 0.2 micron, low protein-binding 13 mm syringe-filter and stored at 4° C.

[2] = biological target: T1, human CD98 ECD; assay: Biacore surface plasmon resonance binding kinetics (anti-Fc capture); settings: huCD98 ECD
Protocol: (§1) The binding kinetics of these purified mouse and rat monoclonal anti-CD98 antibodies for purified recombinant CD98 protein (extracellular domain, ECD) were determined by surface plasmon resonance-based measurements made on Biacore T100/T200 instruments (GE Healthcare, Piscataway, N.J.) at 25° C. using an anti-Fc capture assay approach. Binding kinetic measurements were made in the assay buffer HBS-EP+: 10 mM Hepes, pH 7.4, 150 mM NaCl, 3 mM EDTA, 0.05% Tween 20). For example, approximately 8000 RU of anti-Fc (species specific) polyclonal antibody (Thermo Fisher Scientific Inc., Rockford, Ill.) diluted in 10 mM sodium acetate (pH 4.5) was directly immobilized across a CM5 research grade biosensor chip using a standard amine coupling kit according to manufacturer's instructions and procedures at 25 μg/ml. Unreacted moieties on the biosensor surface were blocked with ethanolamine. The test antibody to be captured as a ligand was diluted in running buffer to ˜0.5 μg/mL and injected over anti-Fc surface at a flow rate of 10 μL/min. CD98 binding and dissociation were observed under a continuous flow rate of 80 μL/min. Human and cynomolgus monkey CD98 ECDs, both with a C-terminal His-tag, are used for this study (Table 3). After each cycle the anti-Fc capture surface was regenerated using 10 mM Glycine-HCl, pH 1.5. During the assay, all measurements were referenced against the capture surface alone (i.e., with no captured test antibody) and buffer-only injections (no antigen) were used for double referencing. For kinetic analysis, rate equations derived from the 1:1 Langmuir binding model were fitted simultaneously, globally and with mass transfer term included to multiple referenced antigen binding curves using Biacore T100/T200 Evaluation software.
(§2) The in vitro binding activities of the recombinant anti-CD98 chimeric mAbs were measured against both recombinant CD98 extracellular domain proteins (ECDs) and CD98-expressing cells. Briefly, binding kinetics of anti-CD98 chimera mAbs for human and cynomolgus CD98 ECDs were determined by surface plasmon resonance-based measurements as described in Example 4. Table 10 reported the association and dissociation rate constants for CD98 binding, ka (M^−1 s^−1) and kd (s^−1), and the equilibrium dissociation constant KD (M) of the interaction between antibodies and the target antigen. Binding of anti-CD98 chimera mAbs for CD98 on cell surface was evaluated by flow cytometry against CHO-K1 cell line stably transfected to express human CD98 and 3T12 cell line stably transfected to express cynomolgus monkey CD98.
(§3) The binding kinetics of the recombinant anti-CD98 chimeric antibodies for purified recombinant CD98 protein (extracellular domain, ECD) were determined by surface plasmon resonance-based measurements, as described in the Example 4.

[3] = system: cynomolgus monkey CD98 ECD; assay: as above; settings: cyCD98 ECD
Protocol: as §1, §2, §3

[4] = biological target: T2, human CD98; assay: Binding of humanized antibodies to human CD98; settings: humanized variants of chAb3 and chAb15

Chain of cynomolgus monkey CD98 ECD (as listed by the source): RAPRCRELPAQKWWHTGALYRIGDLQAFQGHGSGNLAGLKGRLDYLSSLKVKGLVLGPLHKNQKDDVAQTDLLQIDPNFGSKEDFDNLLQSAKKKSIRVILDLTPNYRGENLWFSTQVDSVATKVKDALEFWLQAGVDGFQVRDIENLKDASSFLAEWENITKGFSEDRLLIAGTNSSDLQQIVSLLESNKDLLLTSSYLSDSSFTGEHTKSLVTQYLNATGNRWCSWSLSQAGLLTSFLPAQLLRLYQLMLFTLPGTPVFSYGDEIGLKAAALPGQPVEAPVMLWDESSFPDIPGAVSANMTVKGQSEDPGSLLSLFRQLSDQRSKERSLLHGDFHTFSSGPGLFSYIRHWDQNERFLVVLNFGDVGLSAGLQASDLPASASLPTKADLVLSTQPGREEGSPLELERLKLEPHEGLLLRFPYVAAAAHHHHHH

Molecule | Key observation for ADC solution during and after conjugation [1] | ka [2] | kd [2] | ka [3] | kd [3] | binding to human CD98 [4] | DAR by MS [1]
huAb15v1 (antibody, V domains shown) VH: EVQLVESGGGVVQPGRSLRLSCAASGFTFSDYTMAWVRQAPGKGLEWVATIIYSGRGTYYRDAVKGRFTISRDNSKSTLYLQMNSLRAEDTAVYYCARQSDHTYYYWGYFDYWGQGTMVTVSS VL: DIVMTQSPDSLAVSLGERATINCKSSQSLLFSGNQKNYLAWYQQKPGQSPKLLIYWASTRQSGVPDRFSGSGSGTDFTLTIRSLQAEDVAIYYCQQYYDVPYTFGQGTKLEIK | Precipitated during conjugation; inefficient conjugation | 53000 M⁻¹ s⁻¹ | 2.3e-05 s⁻¹ | 26000 M⁻¹ s⁻¹ | 2.6e-05 s⁻¹ | maintained binding | –
huAb15v6 (antibody, V domains shown) VH: EVQLVESGGGVVQPGRSLRLSCAASGFTFSDYTMAWVRQAPGKGLEWVATIIYDARGTYYRDAVKGRFTISRDNSKSTLYLQMNSLRAEDTAVYYCARQSDDTYYYWGYFDYWGQGTMVTVSS VL: DIVMTQSPDSLAVSLGERATINCKSSQSLLFSGNQKNYLAWYQQKPGQSPKLLIYWASTRQSGVPDRFSGSGSGTDFTLTIRSLQAEDVAIYYCQQYYSSPYTFGQGTKLEIK | Precipitated during conjugation; inefficient conjugation | 38000 M⁻¹ s⁻¹ | 0.00026 s⁻¹ | 14000 M⁻¹ s⁻¹ | 0.00049 s⁻¹ | maintained binding | 2.0
huAb15v5 (antibody, V domains shown) VH: EVQLVESGGGVVQPGRSLRLSCAASGFTFSDYTMAWVRQAPGKGLEWVATIIYTGRGTYYRDAVKGRFTISRDNSKSTLYLQMNSLRAEDTAVYYCARQSDDTYYYWGYFDYWGQGTMVTVSS VL: DIVMTQSPDSLAVSLGERATINCKSSQSLLFSGNQKNYLAWYQQKPGQSPKLLIYWASTRQSGVPDRFSGSGSGTDFTLTIRSLQAEDVAIYYCQQYYSSPYTFGQGTKLEIK | Precipitated during conjugation; inefficient conjugation | 41000 M⁻¹ s⁻¹ | 0.00013 s⁻¹ | 17000 M⁻¹ s⁻¹ | 0.00018 s⁻¹ | maintained binding | 1.0
huAb15v3 (antibody, V domains shown) VH: EVQLVESGGGVVQPGRSLRLSCAASGFTFSDYTMAWVRQAPGKGLEWVATIIYSGRGTYYRDAVKGRFTISRDNSKSTLYLQMNSLRAEDTAVYYCARQSDDTYYYWGYFDYWGQGTMVTVSS VL: DIVMTQSPDSLAVSLGERATINCKSSQSLLFSGNQKNYLAWYQQKPGQSPKLLIYWASTRQSGVPDRFSGSGSGTDFTLTIRSLQAEDVAIYYCQQYYGSPYTFGQGTKLEIK | Precipitated during conjugation; inefficient conjugation | 44000 M⁻¹ s⁻¹ | 8.5e-05 s⁻¹ | 18000 M⁻¹ s⁻¹ | 0.00014 s⁻¹ | maintained binding | 1.2
huAb15v2 (antibody, V domains shown) VH: EVQLVESGGGVVQPGRSLRLSCAASGFTFSDYTMAWVRQAPGKGLEWVATIIYSGRGTYYRDAVKGRFTISRDNSKSTLYLQMNSLRAEDTAVYYCARQSDDTYYYWGYFDYWGQGTMVTVSS VL: DIVMTQSPDSLAVSLGERATINCKSSQSLLFSGNQKNYLAWYQQKPGQSPKLLIYWASTRQSGVPDRFSGSGSGTDFTLTIRSLQAEDVAIYYCQQYYDVPYTFGQGTKLEIK | Precipitated during conjugation; inefficient conjugation | 42000 M⁻¹ s⁻¹ | 4.6e-05 s⁻¹ | 21000 M⁻¹ s⁻¹ | 4.8e-05 s⁻¹ | maintained binding | 2.1
huAb15v7 (antibody, V domains shown) VH: EVQLVESGGGVVQPGRSLRLSCAASGFTFSDYTMAWVRQAPGKGLEWVATIIYDARGTYYRDAVKGRFTISRDNSKSTLYLQMNSLRAEDTAVYYCARQSDDTYYYWGYFDYWGQGTMVTVSS VL: DIVMTQSPDSLAVSLGERATINCKSSQSLLFSGNQKNYLAWYQQKPGQSPKLLIYWASTRQSGVPDRFSGSGSGTDFTLTIRSLQAEDVAIYYCQQYYGSPYTFGQGTKLEIK | Precipitated during conjugation; inefficient conjugation | 35000 M⁻¹ s⁻¹ | 0.00021 s⁻¹ | 14000 M⁻¹ s⁻¹ | 0.00043 s⁻¹ | maintained binding | 2.2
huAb15v4 (antibody, V domains shown) VH: EVQLVESGGGVVQPGRSLRLSCAASGFTFSDYTMAWVRQAPGKGLEWVATIIYTGRGTYYRDAVKGRFTISRDNSKSTLYLQMNSLRAEDTAVYYCARQSDDTYYYWGYFDYWGQGTMVTVSS VL: DIVMTQSPDSLAVSLGERATINCKSSQSLLFSGNQKNYLAWYQQKPGQSPKLLIYWASTRQSGVPDRFSGSGSGTDFTLTIRSLQAEDVAIYYCQQYYDVPYTFGQGTKLEIK | Precipitated during conjugation; inefficient conjugation | 35000 M⁻¹ s⁻¹ | 2.8e-05 s⁻¹ | 20000 M⁻¹ s⁻¹ | 5e-05 s⁻¹ | maintained binding | 1.9

Source: US20230120736A1, “ANTI-CD98 ANTIBODIES AND ANTIBODY DRUG CONJUGATES” (AbbVie Inc., priority 2016, published 2023)
